# Test results: PMC11216086, “The structure of TRAF7 coiled-coil trimer provides insight into its function in zebrafish embryonic development” (Journal of Molecular Cell Biology, 2024)
# B1: TrxA-tagged wild-type human TRAF7 CC (fragment 270–379 aa) [human] / itself (parent)
# chain: GNQDTYETHLETCRFEGLKEFLQQTDDRFHEMHVALAQKDQEIAFLRSMLGKLSEKIDQLEKSLELKFDVLDENQSKLSEDLMEFRRDASMLNDELSHINARLNMGILGS
# Variants of: B1
# Assay: SEC-MALS (self-association / trimerisation)
# Details: with itself; TrxA-tagged at the N-terminus; theoretical molecular weight of the WT trimer is 84.9 kDa
row,screen value,Variant
1,49.5 kDa,GNQDTYETHLETCRFEGLKEFLQQTDDRFHEMHVALAQKDQEIAFLRSMLGKRSEKIDQLEKSLELKFDVLDENQSKLSEDLMEFRRDASMLNDELSHINARLNMGILGS [chain 1 L53R]
2,63.5 kDa,GNQDTYETHLETCRFEGLKEFLQQTDDRFHEMHVALAQKDQEIAFLRSMLGKLSEKIDQLEKSLELKFDVLDENQSKRSEDLMEFRRDASMLNDELSHINARLNMGILGS [chain 1 L78R]
